Laboratory results as given in PMC11369174, “Proteome-scale characterisation of motif-based interactome rewiring by disease mutations” (Molecular Systems Biology, 2024).
Blank lines part the entries; values can stand above or below the binder they belong to.

Experiments:
[1] = target: E3 ubiquitin-protein ligase NEDD4 (NEDD4) WW2 domain, GST-tagged (human); assay: fluorescence polarisation; displacement: unlabelled peptide titrated onto a complex of FITC-labelled peptide (10 nM) and protein domain (1-2x KD); 50 mM sodium phosphate buffer pH 7.4 (CASK: plus 100 mM NaCl); KD calculated from IC50; technical triplets
[2] = target: importin subunit α-3 (KPNA4) ARM domain (human); assay: fluorescence polarisation; displacement as a1, with a FITC-labelled probe sampling the minor pocket of the KPNA4 ARM domain
[3] = target: importin subunit α-3 (KPNA4) ARM domain (human); assay: fluorescence polarisation; displacement as a1, with a FITC-labelled probe sampling the major pocket of the ARM domain (KPNA4, KPNA7)
FITC-STK11_mut = assay: fluorescence polarisation; saturation binding: dilution series of the protein domain added to 10 nM FITC-labelled peptide; 50 mM sodium phosphate pH 7.4, 0.05% Tween (protein dialysed in 50 mM sodium phosphate with 1 mM DTT; CASK kinase domain with 100 mM NaCl in addition); quadratic fit; technical triplets
MAP1LC3A ATG8 (human) = assay: fluorescence polarisation; displacement: unlabelled peptide titrated onto a complex of FITC-labelled peptide (10 nM) and protein domain (1-2x KD); 50 mM sodium phosphate buffer pH 7.4 (CASK: plus 100 mM NaCl); KD calculated from IC50; technical triplets
GABARAPL1 ATG8 (human) = assay: as above
USP7 MATH/ TRAF (human) = assay: as above

Chain of E3 ubiquitin-protein ligase NEDD4 (NEDD4) WW2 domain, GST-tagged (human) (P46934 whole entry, the tested form may be a part): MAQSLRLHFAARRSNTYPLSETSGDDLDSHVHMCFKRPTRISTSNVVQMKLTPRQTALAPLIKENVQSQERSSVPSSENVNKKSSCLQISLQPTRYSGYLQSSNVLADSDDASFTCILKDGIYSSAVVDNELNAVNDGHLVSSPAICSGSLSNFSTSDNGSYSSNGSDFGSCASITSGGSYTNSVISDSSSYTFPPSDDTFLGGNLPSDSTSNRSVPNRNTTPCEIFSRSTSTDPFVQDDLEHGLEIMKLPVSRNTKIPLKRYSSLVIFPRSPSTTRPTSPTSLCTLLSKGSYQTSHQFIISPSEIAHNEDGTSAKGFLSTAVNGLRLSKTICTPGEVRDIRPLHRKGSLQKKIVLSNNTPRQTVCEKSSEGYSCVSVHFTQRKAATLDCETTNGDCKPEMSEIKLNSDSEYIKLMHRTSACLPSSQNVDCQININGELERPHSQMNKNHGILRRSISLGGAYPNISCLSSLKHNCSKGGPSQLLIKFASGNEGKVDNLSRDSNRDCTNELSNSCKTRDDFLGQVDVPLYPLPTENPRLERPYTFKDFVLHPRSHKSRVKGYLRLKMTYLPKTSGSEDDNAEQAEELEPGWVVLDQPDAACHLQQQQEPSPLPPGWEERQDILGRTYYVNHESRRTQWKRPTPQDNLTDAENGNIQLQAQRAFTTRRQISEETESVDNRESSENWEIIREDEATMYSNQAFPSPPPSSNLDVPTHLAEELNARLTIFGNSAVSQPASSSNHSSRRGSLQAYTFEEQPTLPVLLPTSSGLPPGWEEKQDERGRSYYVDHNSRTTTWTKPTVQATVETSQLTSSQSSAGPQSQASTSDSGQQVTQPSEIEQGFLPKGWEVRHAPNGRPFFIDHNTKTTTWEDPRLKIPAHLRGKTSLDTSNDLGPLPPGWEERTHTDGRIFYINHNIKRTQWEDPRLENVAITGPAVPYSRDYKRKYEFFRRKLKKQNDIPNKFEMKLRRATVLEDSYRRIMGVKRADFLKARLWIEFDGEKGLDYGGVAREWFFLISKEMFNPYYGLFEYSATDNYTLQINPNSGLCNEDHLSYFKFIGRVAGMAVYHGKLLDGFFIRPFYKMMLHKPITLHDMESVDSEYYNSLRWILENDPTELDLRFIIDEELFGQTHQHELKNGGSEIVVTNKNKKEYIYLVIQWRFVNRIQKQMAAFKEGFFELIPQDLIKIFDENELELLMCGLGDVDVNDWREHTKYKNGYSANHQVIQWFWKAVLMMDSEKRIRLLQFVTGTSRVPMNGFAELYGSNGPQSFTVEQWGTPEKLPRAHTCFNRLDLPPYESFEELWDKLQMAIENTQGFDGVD
Chain of importin subunit α-3 (KPNA4) ARM domain (human) (O00629 whole entry, the tested form may be a part): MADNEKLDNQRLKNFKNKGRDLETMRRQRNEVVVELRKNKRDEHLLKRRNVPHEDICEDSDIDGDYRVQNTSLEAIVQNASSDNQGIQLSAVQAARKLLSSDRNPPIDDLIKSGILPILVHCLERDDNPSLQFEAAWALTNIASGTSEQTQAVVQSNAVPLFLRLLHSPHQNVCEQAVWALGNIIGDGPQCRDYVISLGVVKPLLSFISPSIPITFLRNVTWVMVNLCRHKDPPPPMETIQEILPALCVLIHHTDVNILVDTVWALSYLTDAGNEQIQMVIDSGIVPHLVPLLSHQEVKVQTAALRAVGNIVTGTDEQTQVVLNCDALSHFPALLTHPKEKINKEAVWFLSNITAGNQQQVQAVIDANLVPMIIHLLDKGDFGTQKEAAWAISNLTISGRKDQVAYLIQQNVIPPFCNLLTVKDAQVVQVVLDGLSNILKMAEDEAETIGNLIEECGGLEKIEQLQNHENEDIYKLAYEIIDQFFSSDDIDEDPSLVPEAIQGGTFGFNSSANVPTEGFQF

Binder: YLLDGPPNPERAKLSS [CREBBP 5-19 K13E peptide]
KD, major pocket [3]: 860 µM

B1: ADP-ribosylation factor-binding protein GGA1 (GGA1) VHS domain (domain or fragment)
chain: ATNPLNKELDWASINGFCEQLNEDFEGPPLATRLLAHKIQSPQEWEAIQALTVLETCMKSCGKRFHDEVGKFRFLNELIKVVSPKYLGSRTSEKVKNKILELLYSWTVGLPEEVKIAEAYQMLKKQGIVKS
Kd (FITC-STK11_mut): 14.1 µM

Binder: QTKWELLQQVDTSTRT [KRT1 209-224 wild-type peptide]
Kd (MAP1LC3A ATG8 (human)): 55 µM

Binder: DKDEWQSLDQNEDAFE [BUB1_(486-501) wild-type peptide]
Kd (GABARAPL1 ATG8 (human)): 5.5 µM

Binder: YISSSSTSTMPNSSKSS [CHK2 38-53 Q51K peptide]
Kd (USP7 MATH/ TRAF (human)): 4.7 µM

Binder: QTKWEPLQQVDTSTRT [KRT1 209-224 L214P peptide]
Kd (MAP1LC3A ATG8 (human)): 580 µM

Binder: DKDEWQFLDQNEDAFE [BUB1_(486-501) S492F peptide]
Kd (GABARAPL1 ATG8 (human)): < 0.3 µM

Binder: YISSSSTSTMPNSSQSS [CHK2 38-53 wild-type peptide]
Kd (USP7 MATH/ TRAF (human)): 3.1 µM

More lines, now with the values ahead:

Kd [1]: 80 µM
Binder: PIPGTRPPNYDSLRLQ [SCNN1B_(611-626) P616R peptide]

Kd [1]: 39 µM
Binder: PIPGTPPPNYDSLRLQ [SCNN1B_(611-626) wild-type peptide]

KD, minor pocket [2]: 395 µM
Binder: PELWVAHRTAQHLSAT [ZNF526_(152-167) K160T peptide]

Kd [1]: 603 µM
Binder: PIPGTPPRNYDSLRLQ [SCNN1B_(611-626) P618R peptide]
